No end group written: not given here.
Molecular target: T1, human islet amyloid polypeptide (IAPP), C-terminally amidated (human, C-terminal amide)
T1 construct: islet amyloid polypeptide (amylin), human, the 37-residue peptide hormone, residues 1-37; numbers count on: the mature protein; also called amylin
T1 chain: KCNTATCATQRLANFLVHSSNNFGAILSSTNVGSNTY
Assay: native MS
Conditions: both partners purified

MLRTKDLIWTLFFLGTAVSKKRPKP-NH2 (also called NPr; CPP) [NCAM1-PrP (NCAM1(1-19)-PrP(23-28)) cell-penetrating peptide construct]
stoichiometry N: 1

— paper PMC13104032, “Prion Protein-Derived Cell-Penetrating Peptide Inhibits Type II Diabetes-Associated Islet Amyloid Polypeptide Aggregation and Cytotoxicity” (Biochemistry, 2026)
